# Experimental data taken from patent US20250313859.
# B1: human ARSA enzyme expressed from the AAVhu68.CB7.CI.hARSAco.rBG transgene in cynomolgus macaques (protein)
# chain: RPPNIVLIFADDLGYGDLGCYGHPSSTTPNLDQLAAGGLRFTDFYVPVSLCTPSRAALLTGRLPVRMGMYPGVLVPSSRGGLPLEEVTVAEVLAARGYLTGMAGKWHLGVGPEGAFLPPHQGFHRFLGIPYSHDQGPCQNLTCFPPATPCDGGCDQGLVPIPLLANLSVEAQPPWLPGLEARYMAFAHDLMADAQRQDRPFFLYYASHHTHYPQFSGQSFAERSGRGPFGDSLMELDAAVGTLMTAIGDLGLLEETLVIFTADNGPETMRMSRGGCSGLLRCGKGTTYEGGVREPALAFWPGHIAPGVTHELASSLDLLPTLAALAGAPLPNVTLDGFDLSPLLLGTGKSPRQSLFFYPSYPDEVRGVFAVRTGKYKAHFFTQGSAHSDTTADPACHASSSLTAHEPPLLYDLSKDPGENYNLLGGVAGATPEVLQALKQLQLLKAQLDAAVTFGPSQVARGEDPALQICCHPGCTPRPACCHCPDPHA
# Target: anti-human ARSA (hARSA) antibodies in cerebrospinal fluid and serum of cynomolgus macaques given AAVhu68.CB7.CI.hARSAco.rBG
protein,measurement,value
B1,ARSA activity levels in CSF (hydrolysis of 4-nitrocatechol sulfate),CSF ARSA activity levels returned to approximately baseline levels over the subsequent 28 days
